Data reported in publication PMC3267196.

Tests used:
Glu36 = Glu36 (UniProt position 36, GVPQYEYLVAM); experiment: IR (low-temperature light-induced difference FTIR); conditions: 170 K, 2 mM sodium phosphate (pH 7.0) for washing liposomes
Asp217 = Asp217 (UniProt position 217, GFSFLDLHGLR); experiment: IR (time-resolved FTIR, quoted from ref 74); conditions: Unphotolysed ASR; the protonation state of Asp217 is inferred from whether it accepts a proton on M formation; cited from earlier work

Substance	pKa (Glu36; buffers for pH 5 and 9 not stated, Dark-adapted ASR (97% all-trans retinal), unphotolysed state versus L intermediate formed by >580 nm illumination)	pKa (Glu36; not stated for pH 5 and 9, Dark-adapted ASR (predominantly all-trans), unphotolysed state bands in the L minus ASR difference spectrum)	pKa (Asp217)
Anabaena sensory rhodopsin (ASR) (Anabaena (Nostoc) sp. PCC 7120)	between 6 and 7	about 7	
Anabaena sensory rhodopsin (ASR), as studied by Shi et al. 2006 (Anabaena (Nostoc) sp. PCC 7120)			between 6 and 7
